# T1: Flag-tagged FANCJ wild type (human, UniProt Q9BX63 1-1249)
# T1 construct: FANCJ (BRIP1, BACH1) DNA helicase, human, open reading frame; purified as full-length protein; Plasmid from Hisao Masai (Uno et al, 2012); also called FANCJ WT; Flag-FANCJ WT; source: HEK 293T, transiently transfected (pCSII-EF-MCS): in whole-cell extract or nuclear fraction; also purified (anti-Flag M2 agarose, 3x Flag-peptide elution)
# T1 sequence (looked up): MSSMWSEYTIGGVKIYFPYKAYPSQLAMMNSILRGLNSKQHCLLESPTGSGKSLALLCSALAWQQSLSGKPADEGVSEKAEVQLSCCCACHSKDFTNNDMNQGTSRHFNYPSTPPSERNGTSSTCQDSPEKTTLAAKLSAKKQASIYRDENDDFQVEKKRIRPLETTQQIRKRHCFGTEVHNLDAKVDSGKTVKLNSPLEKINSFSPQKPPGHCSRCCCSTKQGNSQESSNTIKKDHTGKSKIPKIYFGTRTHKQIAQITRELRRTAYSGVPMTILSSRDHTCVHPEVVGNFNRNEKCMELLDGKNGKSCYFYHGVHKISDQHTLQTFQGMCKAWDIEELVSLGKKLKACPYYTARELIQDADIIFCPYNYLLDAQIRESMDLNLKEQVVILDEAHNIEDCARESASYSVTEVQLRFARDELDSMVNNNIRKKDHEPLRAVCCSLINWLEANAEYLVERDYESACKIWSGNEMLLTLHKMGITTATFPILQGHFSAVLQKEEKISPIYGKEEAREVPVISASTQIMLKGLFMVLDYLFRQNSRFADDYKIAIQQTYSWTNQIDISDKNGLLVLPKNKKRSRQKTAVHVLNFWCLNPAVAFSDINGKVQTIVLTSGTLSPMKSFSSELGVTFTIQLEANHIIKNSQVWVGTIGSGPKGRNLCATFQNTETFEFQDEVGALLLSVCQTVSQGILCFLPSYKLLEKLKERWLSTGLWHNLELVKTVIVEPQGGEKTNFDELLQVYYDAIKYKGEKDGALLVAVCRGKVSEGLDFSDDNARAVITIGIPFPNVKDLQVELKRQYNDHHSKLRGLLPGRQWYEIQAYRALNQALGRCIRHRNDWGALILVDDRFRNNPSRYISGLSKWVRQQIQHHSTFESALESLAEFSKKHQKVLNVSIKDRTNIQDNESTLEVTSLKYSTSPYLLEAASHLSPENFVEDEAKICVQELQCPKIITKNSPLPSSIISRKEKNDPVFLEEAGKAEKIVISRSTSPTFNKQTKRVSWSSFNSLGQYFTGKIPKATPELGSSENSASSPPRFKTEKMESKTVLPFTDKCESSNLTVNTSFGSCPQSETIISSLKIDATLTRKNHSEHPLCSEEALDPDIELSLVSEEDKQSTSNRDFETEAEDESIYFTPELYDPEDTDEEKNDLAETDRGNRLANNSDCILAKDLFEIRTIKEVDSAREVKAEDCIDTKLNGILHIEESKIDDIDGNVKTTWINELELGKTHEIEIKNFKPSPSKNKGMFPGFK
# B1: 6xHis-tagged AND-1 SepB (domain or fragment, human, UniProt O75717 336-826, looked up)
# chain: GDFLNDNAVEIPSFSKGIINDDEDDEDLMMASGRPRQRSHILEDDENSVDISMLKTGSSLLKEEEEDGQEGSIHNLPLVTSQRPFYDGPMPTPRQKPFQSGSTPLHLTHRFMVWNSIGIIRCYNDEQDNAIDVEFHDTSIHHATHLSNTLNYTIADLSHEAILLACESTDELASKLHCLHFSSWDSSKEWIIDLPQNEDIEAICLGQGWAAAATSALLLRLFTIGGVQKEVFSLAGPVVSMAGHGEQLFIVYHRGTGFDGDQCLGVQLLELGKKKKQILHGDPLPLTRKSYLAWIGFSAEGTPCYVDSEGIVRMLNRGLGNTWTPICNTREHCKGKSDHYWVVGIHENPQQLRCIPCKGSRFPPTLPRPAVAILSFKLPYCQIATEKGQMEEQFWRSVIFHNHLDYLAKNGYEYEESTKNQATKEQQELLMKMLALSCKLEREFRCVELADLMTQNAVNLAIKYASRSRKLILAQKLSELAVEKAAELTAT
# notes: AND-1 (WDHD1), human, SepB domain, amino-acid residues 336-826; pRSF-Duet-1 construct from Luca Pellegrini; purification as in Kilkenny et al, 2017; also called 6xHis-SepB; AND-1 SepB domain; source: E. coli BL21 (DE3), purified
# Assays:
# Settings in all cases: both partners purified
# [1] = molecular target: T1, Flag-tagged FANCJ wild type; experiment: pull-down; His10-Myc-AND-1 (12 μg) on c-Myc magnetic beads, purified FANCJ (4 μg) added; PBS, 5% glycerol, 0.5 mM TCEP, 0.2% Igepal, Benzonase, 2 h at 4 °C; Western blot
# [2] = molecular target: T1, Flag-tagged FANCJ wild type; experiment: pull-down; Flag-tagged protein (2 µg) on anti-Flag M2 agarose beads, purified AND-1 SepB (4 µg) added; 20 mM HEPES-NaOH pH 7.2, 150 mM NaCl, 0.1% Igepal, 1% BSA, 4 °C; Western blot
# 6xHis-tagged AND-1 SepB = molecular target: B1; experiment: pull-down; GST-FANCJ CIP box on Glutathione Sepharose 4B beads, purified AND-1 SepB (0.5 mg in 500 μL) added; PD Buffer 1 with 1% BSA, 1 h at 4 °C; SDS-PAGE, Coomassie
binder,measurement,setting,value
"full-length 10xHis-Myc-tagged AND-1 (natural protein, human, UniProt O75717 1-1129, looked up, AND-1 (WDHD1), human, full length, amino-acid residues 1-1129; pFBDM construct from Luca Pellegrini (Kilkenny et al, 2017); also called His10-Myc-tagged AND-1; AND-1 full-length; source: High-Five insect cells, baculovirus, purified (Ni-NTA, HiTrap Q)) MPATRKPMRYGHTEGHTEVCFDDSGSFIVTCGSDGDVRIWEDLDDDDPKFINVGEKAYSCALKSGKLVTAVSNNTIQVHTFPEGVPDGILTRFTTNANHVVFNGDGTKIAAGSSDFLVKIVDVMDSSQQKTFRGHDAPVLSLSFDPKDIFLASASCDGSVRVWQISDQTCAISWPLLQKCNDVINAKSICRLAWQPKSGKLLAIPVEKSVKLYRRESWSHQFDLSDNFISQTLNIVTWSPCGQYLAAGSINGLIIVWNVETKDCMERVKHEKGYAICGLAWHPTCGRISYTDAEGNLGLLENVCDPSGKTSSSKVSSRVEKDYNDLFDGDDMSNAGDFLNDNAVEIPSFSKGIINDDEDDEDLMMASGRPRQRSHILEDDENSVDISMLKTGSSLLKEEEEDGQEGSIHNLPLVTSQRPFYDGPMPTPRQKPFQSGSTPLHLTHRFMVWNSIGIIRCYNDEQDNAIDVEFHDTSIHHATHLSNTLNYTIADLSHEAILLACESTDELASKLHCLHFSSWDSSKEWIIDLPQNEDIEAICLGQGWAAAATSALLLRLFTIGGVQKEVFSLAGPVVSMAGHGEQLFIVYHRGTGFDGDQCLGVQLLELGKKKKQILHGDPLPLTRKSYLAWIGFSAEGTPCYVDSEGIVRMLNRGLGNTWTPICNTREHCKGKSDHYWVVGIHENPQQLRCIPCKGSRFPPTLPRPAVAILSFKLPYCQIATEKGQMEEQFWRSVIFHNHLDYLAKNGYEYEESTKNQATKEQQELLMKMLALSCKLEREFRCVELADLMTQNAVNLAIKYASRSRKLILAQKLSELAVEKAAELTATQVEEEEEEEDFRKKLNAGYSNTATEWSQPRFRNQVEEDAEDSGEADDEEKPEIHKPGQNSFSKSTNSSDVSAKSGAVTFSSQGRVNPFKVSASSKEPAMSMNSARSTNILDNMGKSSKKSTALSRTTNNEKSPIIKPLIPKPKPKQASAASYFQKRNSQTNKTEEVKEENLKNVLSETPAICPPQNTENQRPKTGFQMWLEENRSNILSDNPDFSDEADIIKEGMIRFRVLSTEERKVWANKAKGETASEGTEAKKRKRVVDESDETENQEEKAKENLNLSKKQKPLDFSTNQKLSAFAFKQE",binding result,[1],binds
B1,binding result,[2],binds
"GEKTNFDELLQVYYDAIK (domain or fragment, human, UniProt Q9BX63 730-747, looked up, FANCJ (BRIP1), human, CIP box, amino-acid residues 730-747; also called GST-CIP box WT; source: transformed cells cultured in LB medium, IPTG-induced (pGEX-6P-1); captured from the soluble extract on Glutathione Sepharose 4B beads) [GST-FANCJ CIP box wild type]",binding result,6xHis-tagged AND-1 SepB,binds
